The assay addresses purified recombinant endophilin A1-SH3 (ITC and NMR) (UniProt O35179 291-352). The assay can be described thus: ITC. Background: ITC needs no label: the signal is the heat of the interaction.

purified recombinant endophilin A1-SH3 (ITC and NMR), sequence (O35179 291-352): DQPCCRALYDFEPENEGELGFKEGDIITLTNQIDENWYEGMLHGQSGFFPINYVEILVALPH

B1: purified recombinant intersectin 1-SH3B (ITC and NMR) (domain or fragment)
chain: LQAQALYPWRAKKDNHLNFNKNDVITVLEQQDMWWFGEVQGQKGWFPKSYVKLIS
The term Kd denotes a measure of binding affinity in units of concentration. One may read the stoichiometry N as the number of molecules, sites or subunits per partner or assembly. With B1, the Kd was approximately 30 µM and the “stoichiometry N” value came out at 1.
